# Assay results reported in the Immune Epitope Database (IEDB).
# What was measured:
# HLA-A*68:01 = experiment: IEDB peptide-MHC binding, purified MHC/competitive/radioactivity; filed as Kd, often an IC50 or EC50 that approximates it; ≥ and ≤ were set here for values at or beyond the usual limits of such assays
# HLA-A*31:01 = experiment: as above
# HLA-A*30:01 = experiment: as above
# HLA-A*33:01 = experiment: as above
# HLA-A*03:01 [1] = experiment: as above
# HLA-A*32:01 = experiment: as above
# HLA-A*29:02 = experiment: as above; settings: source organism: Mammarenavirus juninense
# HLA-A*26:01 = experiment: as above; settings: source organism: Mammarenavirus juninense
# HLA-A*30:02 = experiment: as above; settings: source organism: Mammarenavirus juninense
# HLA-A*01:01 = experiment: as above; settings: source organism: Mammarenavirus juninense
# HLA-B*44:02 = experiment: as above; settings: source organism: Dengue virus 1 Singapore/S275/1990
# HLA-B*40:01 = experiment: as above; settings: source organism: Dengue virus 3 Martinique/1243/1999
# HLA-A*02:01 [2] = experiment: IEDB peptide-MHC binding, purified MHC/competitive/fluorescence; filed as Kd, often an IC50 or EC50 that approximates it; ≥ and ≤ were set here for values at or beyond the usual limits of such assays; settings: source organism: Vaccinia virus WR 65-16
# HLA-B*07:02 = experiment: IEDB peptide-MHC binding, purified MHC/direct/fluorescence; filed as Kd, often an IC50 or EC50 that approximates it; ≥ and ≤ were set here for values at or beyond the usual limits of such assays; settings: source organism: Homo sapiens
# HLA-A*24:02 = experiment: IEDB peptide-MHC binding, purified MHC/competitive/fluorescence; ≥ and ≤ were set here for values at or beyond the usual limits of such assays
# HLA-B*53:01 = experiment: IEDB peptide-MHC binding, purified MHC/competitive/radioactivity; filed as Kd, often an IC50 or EC50 that approximates it; ≥ and ≤ were set here for values at or beyond the usual limits of such assays
# HLA-A*02:01 [3] = experiment: IEDB peptide-MHC binding, purified MHC/competitive/fluorescence; ≥ and ≤ were set here for values at or beyond the usual limits of such assays
# HLA-B*15:01 = experiment: IEDB peptide-MHC binding, purified MHC/direct/fluorescence; filed as Kd, often an IC50 or EC50 that approximates it; ≥ and ≤ were set here for values at or beyond the usual limits of such assays; settings: source organism: Brucella abortus
# HLA-A*11:01 = experiment: as above; settings: source organism: Brucella abortus
# HLA-A*03:01 [4] = experiment: as above; settings: source organism: Brucella abortus
# [5] = source organism: Mammarenavirus machupoense
# [6] = source organism: Vaccinia virus WR
# [7] = source organism: Mammarenavirus juninense
# [8] = source organism: Lymphocytic choriomeningitis virus (strain Armstrong)
# [9] = source organism: Zaire ebolavirus
sequence,measurement,setting,value
SIQKNTIFK,Kd,HLA-A*68:01; [5],162 nM
same,Kd,HLA-A*31:01; [5],1890 nM
same,Kd,HLA-A*30:01; [5],62.6 nM
same,Kd,HLA-A*33:01; [5],≥ 22900 nM
same,Kd,HLA-A*03:01 [1]; [5],10.4 nM
SIRRNLALK,Kd,HLA-A*30:01; [6],12.4 nM
SLFSLLLVI,Kd,HLA-A*32:01; [6],27.5 nM
SVIGTFVAEF,Kd,HLA-A*30:01; [7],2420 nM
same,Kd,HLA-A*29:02,169 nM
same,Kd,HLA-A*32:01; [7],195 nM
same,Kd,HLA-A*26:01,3.37 nM
same,Kd,HLA-A*30:02,110 nM
same,Kd,HLA-A*01:01,3580 nM
SVNSFTLLI,Kd,HLA-A*32:01; source organism: Vaccinia virus Copenhagen,2.63 nM
TARSNNRLA,Kd,HLA-A*30:01; [6],57.6 nM
TDFQSHQLW,Kd,HLA-B*44:02,37 nM
TEATQLATL,Kd,HLA-B*40:01,8.32 nM
TLRAAMISL,Kd,HLA-A*02:01 [2],2310 nM
same,Kd,HLA-A*30:01; [6],0.714 nM
TTYLGPLSCK,Kd,HLA-A*68:01; [8],4.63 nM
same,Kd,HLA-A*31:01; [8],540 nM
same,Kd,HLA-A*30:01; [8],432 nM
same,Kd,HLA-A*33:01; [8],647 nM
same,Kd,HLA-A*03:01 [1]; [8],4.47 nM
TVKDGRLGA,Kd,HLA-A*30:01; [6],240 nM
VAEGQTLDL,Kd,HLA-B*07:02,≥ 87200 nM
VDNLTYVQL,IC50,HLA-A*24:02; [9],≥ 117000 nM
VMEITAEWLW,Kd,HLA-B*53:01; source organism: Dengue virus 3 Singapore/8120/1995,1030 nM
VNPEIDTTI,IC50,HLA-A*02:01 [3]; [9],≥ 358000 nM
same,IC50,HLA-A*24:02; [9],16100 nM
VQGPGGSTY,Kd,HLA-B*15:01,190 nM
same,Kd,HLA-A*11:01,8940 nM
same,Kd,HLA-A*03:01 [4],14500 nM
VQLESRFTP,IC50,HLA-A*02:01 [3]; [9],≥ 197000 nM
same,IC50,HLA-A*24:02; [9],59200 nM
VTEIGRVPSH,Kd,HLA-A*30:01; source organism: Dengue virus 3 Martinique/1243/1999,≥ 22900 nM
WFNYLFGGF,IC50,HLA-A*02:01 [3]; source organism: Variola virus,≥ 104000 nM
same,IC50,HLA-A*24:02; source organism: Variola virus,484 nM
YPKTKLTDW,Kd,HLA-B*53:01; source organism: Dengue virus 4 Philippines/H241/1956,1440 nM
